Data set [1] concerns the molecule itself. In words: time course of 1H solution NMR signals of the monomer; one-dimensional 1H spectra over time after mixing; TasA at 125 or 250 µM with TapA or TapA variants (e.g. 5:1); legend: 20 °C, pH 7, 150 mM NaCl.
For data set [2], the target named is T1, TasA (mature protein, residues 28 to 261) (Bacillus subtilis (strain 168), UniProt P54507).
T1 chain: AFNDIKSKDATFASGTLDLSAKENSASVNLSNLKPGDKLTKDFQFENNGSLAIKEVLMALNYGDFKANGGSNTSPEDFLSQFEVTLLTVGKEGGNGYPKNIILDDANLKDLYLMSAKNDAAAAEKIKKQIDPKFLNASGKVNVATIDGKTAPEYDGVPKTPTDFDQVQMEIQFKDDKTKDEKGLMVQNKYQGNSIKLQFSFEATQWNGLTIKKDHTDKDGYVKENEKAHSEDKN
The data set is described as follows: AUC (sedimentation velocity); 150 mM NaCl at pH 7 (no ITC response at 50 mM NaCl, pH 7); TapA-induced TasA oligomerization.

Data set [3] deals with the molecule itself. The data set is described as follows: SEC; gel filtration of TapA constructs, without DTT. For orientation: Size exclusion chromatography separates by hydrodynamic size, large species first.
Data set [4] concerns the target T2, TasA (mature protein, residues 28 to 261) (Bacillus subtilis, UniProt P54507 28-261).
T2 construct: Used unlabelled or isotope-labelled (2H,13C,15N; 2H,15N; [2-13C]-glycerol) according to the experiment; also called translocation-dependent antimicrobial spore component; source: monomer separated by gel filtration
T2 sequence (looked up): T1 chain
The data set is described as follows: AUC; sedimentation velocity of mixtures: 100 µM TasA with TapA (100, 70, 10, 4, 2 or 1 µM), TapA variants (100 µM) or 250 µM peptide; 20 °C, 20 mM Na phosphate pH 7.0, 150 mM NaCl, 40,000 rpm, runs of 17 h. As to conditions: both partners purified.

B1: TasA_(28-239) (domain or fragment, Bacillus subtilis, UniProt P54507 28-239, looked up)
chain: AFNDIKSKDATFASGTLDLSAKENSASVNLSNLKPGDKLTKDFQFENNGSLAIKEVLMALNYGDFKANGGSNTSPEDFLSQFEVTLLTVGKEGGNGYPKNIILDDANLKDLYLMSAKNDAAAAEKIKKQIDPKFLNASGKVNVATIDGKTAPEYDGVPKTPTDFDQVQMEIQFKDDKTKDEKGLMVQNKYQGNSIKLQFSFEATQWNGLTIK
With B1, the binding result in data set [1] is recorded as “binds”.

B2: TapA (mature protein, residues 44 to 253) (protein)
chain: AFHDIETFDVSLQTCKDFQHTDKNCHYDKRWDQSDLHISDQTDTKGTVCSPFALFAVLENTGEKLKKSKWKWELHKLENARKPLKDGNVIEKGFVSNQIGDSLYKIETKKKMKPGIYAFKVYKPAGYPANGSTFEWSEPMRLAKCDEKPTVPKKETKSDVKKENETTQKDIPEKTMKEETSQEAVTKEKETQSDQKESGEEDEKSNEADQ
On to B2, for which the binding result in data set [2] is recorded as “binds”.

B3: TapA_(60-190) (domain or fragment, B. subtilis 168, UniProt P40949 60-190, looked up)
chain: DFQHTDKNCHYDKRWDQSDLHISDQTDTKGTVCSPFALFAVLENTGEKLKKSKWKWELHKLENARKPLKDGNVIEKGFVSNQIGDSLYKIETKKKMKPGIYAFKVYKPAGYPANGSTFEWSEPMRLAKCDE
notes: TapA of Bacillus subtilis 168, residues 60 to 190; Odd number of cysteines (free C68)
For the molecule B3, the stoichiometry N (as a rule, the number of molecules, sites or subunits per partner or assembly) in data set [3] turned out to be 2.

B4: TapA_(66-190) (domain or fragment, B. subtilis 168, UniProt P40949 66-190, looked up)
chain: KNCHYDKRWDQSDLHISDQTDTKGTVCSPFALFAVLENTGEKLKKSKWKWELHKLENARKPLKDGNVIEKGFVSNQIGDSLYKIETKKKMKPGIYAFKVYKPAGYPANGSTFEWSEPMRLAKCDE
notes: TapA of Bacillus subtilis 168, residues 66 to 190; Odd number of cysteines (free C68)
Regarding B4, the “stoichiometry N” value in data set [3] was determined as 2.

B5: TapA_(44-190) (domain or fragment, B. subtilis 168, UniProt P40949 44-190, looked up)
chain: AFHDIETFDVSLQTCKDFQHTDKNCHYDKRWDQSDLHISDQTDTKGTVCSPFALFAVLENTGEKLKKSKWKWELHKLENARKPLKDGNVIEKGFVSNQIGDSLYKIETKKKMKPGIYAFKVYKPAGYPANGSTFEWSEPMRLAKCDE
notes: also called TapA without residues beyond E190; variant with deleted C terminus
Consider B5, for which the binding result in data set [4] was “binds”.

The values are drawn from article PMC10151520, “TapA acts as specific chaperone in TasA filament formation by strand complementation” (Proceedings of the National Academy of Sciences of the …, 2023).
